Source: patent US20250206843A1 (NATIONAL INSTITUTE FOR BIOTECHNOLOGY IN THE NEGEV, published 2025)

Key:
[1] = target: T1, human HER2-His extracellular-domain protein (human, UniProt P04626 23-652); assay: SPR, Biacore T200; HER2 immobilized (ligand), Nb46 as analyte
T1 construct: extracellular domain; Bought protein; also called recombinant HER2; not shown: His tag
Description: (§1) SPR binding assay—The affinity of Nbs to HER2 or HER3 was determined in two ways by using surface plasmon resonance (SPR) spectroscopy. SPR measurements were performed on a Biacore T200 instrument. In one layout, purified Nb38 (10 μg/ml) and Nb46 (20 μg/ml) were immobilized on a CM5 chip using an amine coupling kit (GE Healthcare, Chicago, IL). The analytes, human HER2-His or HER3-His extracellular-domain proteins (R&D systems, Minneapolis, MN) dissolved in PBST (PBS supplemented with 0.05% Tween-20 v/v), were flown at 30 μl/min, and the chip was regenerated using 2 mM NaOH. In a second layout, the purified human HER2-His or HER3-His extracellular-domain proteins, at 10 μg/ml, were immobilized on a CM5 chip). The analytes, NB46 and NB38 (and NB7 as a negative control), were flown at 30 μl/min in PBST, and the chip was regenerated using 20 mM glycine. Binding was allowed for 180 s and dissociation for 600 s. Curves were fitted using Biacore's evaluation software using a 1:1 ligand:analyte binding model to retrieve association rate constants (ka), dissociation rate constants (kd), and equilibrium dissociation constants (KD, a measurement of affinity).

[2] = target: T2, human epidermal growth factor receptor 2 (HER2), on cells (human, UniProt P04626 23-1255); assay: flow cytometry on HEK 293 cells expressing HER2, anti-VHH-488 detection, n=3
T2 construct: whole, on cells; Target of the flow cytometry and imaging experiments (HEK 293 cells expressing HER2; SkBr3 cells); also called ErbB2; HER2 receptor
Description: (§2) FIGS. 6A-6D. Nb46 binding to HER2 cell-receptors by FACS analysis. […] The fluorescent signal was subtracted from that of cells incubated with the antibody alone and normalized relative to the highest signal (FIG. 6B), n=3. FIG. 6C—Affinity binding of NB46 with SkBr3 cells conducted with and without 1.8 mM Neuregulin-1 (NRG) following 1 hour incubation. Data was fitted with a sigmoidal curve in Excel (dashed lines), n=3.

human HER3, on cells [3] = target: T3, human HER3, on cells (human, UniProt P21860 20-1342); assay: flow cytometry on HEK 293 cells expressing HER3, anti-VHH-488 detection, n=3
T3 construct: whole, on cells; also called ErbB3

[4] = target: T2, human epidermal growth factor receptor …; assay: flow cytometry on SkBr3 cells in the presence of Neuregulin-1 (NRG; the legend prints 1.8 mM), anti-VHH-488 detection, n=3
Description: as §2
(§3) Nb46 binding of HER2+ cancer cells—SkBr3 cells were grown to 70-90% confluency in T-75 flasks overnight. The cells were detached by aspirating the medium and washing cells with 10 mL hot PBS before pipetting 5 mL of non-enzymatic cell dissociation solution (Biological Industries, Beit Haemek, Israel) and incubating for 5 minutes at 37° C. […] The cells were Incubated for 1 h at 4° C. on a tubes rotator after which the cells were washed off of unbound Nb; cells were centrifuged at 350 g for 5 minutes, supernatant discarded, and cells resuspend in 900 μL of PBS-FBS, repeatedly for 3 times. After the 3rd centrifugation, the cells were resuspended in 300 μL PBS-FBS containing iFluor488-conjugated anti-camelid VHH (1:1000, Genescript, NJ, USA), and incubated for additional 1 h at 4° C. on a tubes rotator, in the dark. […]

[5] = target: T1, human HER2-His extracellular-domain …; assay: SPR, Biacore T200; Nb46 immobilized, HER2-His ECD as analyte; Nb46 immobilized, HER2 as analyte
Description: as §1

[6] = target: T4, HER2 and HER3 co-expressed on cells (HER2/3) (human, UniProt P04626 23-1255; P21860 20-1342); assay: flow cytometry on HEK 293 cells expressing HER2 and HER3, anti-VHH-488 detection, signal normalised to the highest signal, n=3
T4 construct: whole, on cells; Dubca camel fibroblasts in the periplasmic ELISA screen; also called HER2/HER3
Description: as §2

[7] = target: T1, human HER2-His extracellular-domain …; assay: SPR, Biacore T200; average of the two orientations; average of the two orientations
Description: as §1

[8] = target: T2, human epidermal growth factor receptor …; assay: flow cytometry titration on SkBr3 HER2+ breast cancer cells
Description: as §2, §3

[9] = target: T4, HER2 and HER3 co-expressed on cells …; assay: flow cytometry on HEK 293 cells expressing HER2 and HER3, anti-VHH-488 detection, n=3
Description: as §2

[10] = target: T1, human HER2-His extracellular-domain …; assay: SPR, Biacore T200; average of the two orientations
Description: as §1

[11] = target: T2, human epidermal growth factor receptor …; assay: flow cytometry on SkBr3 cells without Neuregulin-1, anti-VHH-488 detection, n=3
Description: as §2, §3

[12] = target: T1, human HER2-His extracellular-domain …; assay: SPR, Biacore T200; Nb46 immobilized (ligand), HER2 as analyte
Description: as §1

[13] = target: T5, human HER3-His extracellular-domain protein (human, UniProt P21860 20-643); assay: SPR, Biacore T200, both orientations
T5 construct: extracellular domain; Bought protein; not shown: His tag
Description: as §1

[14] = target: T2, human epidermal growth factor receptor …; assay: flow cytometry on HEK 293 cells expressing HER2, anti-VHH-488 detection, signal normalised to the highest signal, n=3
Description: as §2

[15] = target: T1, human HER2-His extracellular-domain …; assay: SPR, Biacore T200; HER2-His ECD immobilized, Nb46 as analyte; HER2 immobilized, Nb46 as analyte
Description: as §1

[16] = target: T2, human epidermal growth factor receptor …; assay: flow cytometry on SkBr3 cells, Nb46-AF647 detected with secondary anti-VHH-488 antibody
Description: as §2, §3

[17] = target: T4, HER2 and HER3 co-expressed on cells …; assay: flow cytometry on cells co-expressing HER2 and HER3
human HER3, on cells [18] = target: T3, human HER3, on cells; assay: flow cytometry on cells expressing HER3
[19] = target: T2, human epidermal growth factor receptor …; assay: flow cytometry on cells expressing HER2

T3 sequence (P21860 20-1342): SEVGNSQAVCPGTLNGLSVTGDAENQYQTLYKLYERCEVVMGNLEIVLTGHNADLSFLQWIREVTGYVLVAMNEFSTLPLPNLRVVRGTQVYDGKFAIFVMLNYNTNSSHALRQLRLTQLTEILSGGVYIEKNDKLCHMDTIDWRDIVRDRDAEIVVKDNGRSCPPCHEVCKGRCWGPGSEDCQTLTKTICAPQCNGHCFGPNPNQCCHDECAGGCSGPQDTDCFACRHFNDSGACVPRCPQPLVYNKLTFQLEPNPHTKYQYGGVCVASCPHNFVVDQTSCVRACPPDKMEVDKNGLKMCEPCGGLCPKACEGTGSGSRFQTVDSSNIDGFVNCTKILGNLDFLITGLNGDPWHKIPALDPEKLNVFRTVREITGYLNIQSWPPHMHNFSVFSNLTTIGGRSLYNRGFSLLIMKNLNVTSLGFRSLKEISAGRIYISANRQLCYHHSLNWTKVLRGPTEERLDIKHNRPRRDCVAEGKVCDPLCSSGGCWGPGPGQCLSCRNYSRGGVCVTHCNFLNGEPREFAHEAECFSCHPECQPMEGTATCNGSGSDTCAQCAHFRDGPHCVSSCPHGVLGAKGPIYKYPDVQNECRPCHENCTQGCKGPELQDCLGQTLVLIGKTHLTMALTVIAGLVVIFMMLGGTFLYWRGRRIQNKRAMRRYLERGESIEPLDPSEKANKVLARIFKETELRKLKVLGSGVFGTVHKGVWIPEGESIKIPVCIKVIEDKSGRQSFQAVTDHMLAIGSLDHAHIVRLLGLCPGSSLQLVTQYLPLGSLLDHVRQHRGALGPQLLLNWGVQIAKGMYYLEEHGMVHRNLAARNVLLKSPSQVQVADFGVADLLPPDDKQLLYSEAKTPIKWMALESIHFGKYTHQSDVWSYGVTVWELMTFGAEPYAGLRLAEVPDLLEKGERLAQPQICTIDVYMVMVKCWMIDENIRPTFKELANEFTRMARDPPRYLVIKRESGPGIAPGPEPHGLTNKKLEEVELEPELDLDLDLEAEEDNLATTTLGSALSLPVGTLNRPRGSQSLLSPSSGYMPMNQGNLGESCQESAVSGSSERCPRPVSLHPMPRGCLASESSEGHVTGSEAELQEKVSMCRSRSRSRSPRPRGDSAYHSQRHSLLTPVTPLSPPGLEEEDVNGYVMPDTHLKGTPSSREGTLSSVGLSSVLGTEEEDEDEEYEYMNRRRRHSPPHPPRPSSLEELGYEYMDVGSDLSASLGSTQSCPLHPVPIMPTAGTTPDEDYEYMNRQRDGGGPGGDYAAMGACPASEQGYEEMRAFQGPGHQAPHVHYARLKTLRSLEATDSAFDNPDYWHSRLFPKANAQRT
T5 sequence (P21860 20-643): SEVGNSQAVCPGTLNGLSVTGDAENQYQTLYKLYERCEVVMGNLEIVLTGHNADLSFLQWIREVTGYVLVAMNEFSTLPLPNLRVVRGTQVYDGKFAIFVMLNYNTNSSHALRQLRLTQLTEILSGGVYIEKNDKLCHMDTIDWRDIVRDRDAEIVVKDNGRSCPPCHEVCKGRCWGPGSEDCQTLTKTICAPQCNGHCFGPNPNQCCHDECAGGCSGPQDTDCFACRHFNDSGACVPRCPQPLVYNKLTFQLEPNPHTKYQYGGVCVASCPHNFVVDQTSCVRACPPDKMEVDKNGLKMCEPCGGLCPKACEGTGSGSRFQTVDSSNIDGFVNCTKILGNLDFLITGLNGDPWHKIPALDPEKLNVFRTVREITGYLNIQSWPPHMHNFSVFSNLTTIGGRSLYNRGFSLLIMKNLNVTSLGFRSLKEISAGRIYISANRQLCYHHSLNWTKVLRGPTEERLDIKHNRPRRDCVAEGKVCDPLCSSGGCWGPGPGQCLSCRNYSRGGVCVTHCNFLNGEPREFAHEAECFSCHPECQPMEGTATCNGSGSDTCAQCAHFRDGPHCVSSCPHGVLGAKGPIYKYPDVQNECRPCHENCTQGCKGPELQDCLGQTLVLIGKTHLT

B1: Nb46 (VHH)
VHH: QVQLQESGGGSVQAGGSLRLSCVVSGYFYYDHYYVAWFRQAPGKEREGVALINGRDSDTYYADSVKGRFTISQDSAKNTVYLQMNSLKPEDTAIYYCAANPGEAFTVLPPRVFRNWGQGTQVTVSS
notes: also called N46
[1]
  koff: 0.00154 s⁻¹
  kon: 6.26e+06 M⁻¹ s⁻¹
[2]
  EC50 (read off the curve): ~0.8 nM
Human HER3, on cells [3]
  binding result: no binding (tested: 25 nM)
[4]
  EC50 (read off the curve): ~0.8 nM
[5]
  Kd: 0.17 nM
[6]
  EC50 (read off the curve): ~0.8 nM
[7]
  Kd: 0.21 nM
[8]
  Kd: 0.8 nM
[9]
  EC50 (read off the curve): ~0.9 nM
[10]
  koff: 0.00187 s⁻¹
  kon: 9.42e+06 M⁻¹ s⁻¹
[11]
  EC50 (read off the curve): ~0.9 nM
[12]
  koff: 0.00221 s⁻¹
  kon: 1.26e+07 M⁻¹ s⁻¹
[13]
  binding result: no binding
[14]
  EC50 (read off the curve): ~0.8 nM
[15]
  Kd: 0.24 nM

B2: Nb46-AF647 (VHH)
VHH: B1 VHH
modifications: Alexa Fluor 647 (NHS ester), approximately 1 mole dye/mole NB; labelled residue not stated
notes: also called N46-Af647
[16]
  binding result: binds

B3: Nb38 (VHH)
VHH: QVQLQESGGGSVQAGGSLKLSCVASGFTRSMGWARQAPGKEREGVVCINNYNIGSGKWYADSVKGRFTISRDNDKNTVSLQMNSLKPEDTAIYYCAASPLYLCDNSSWFAAGFAAGSHVWGQGTQVTVSS
notes: Camel VHH expressed from pMECS (C-terminal HA and 6xHis tags) and purified on Ni-NTA; also called N38
[17]
  binding result: no binding
Human HER3, on cells [18]
  binding result: no binding
[19]
  binding result: no binding
